In paper PMC7782850, “Metaxins are core components of mitochondrial transport adaptor complexes” (Nature Communications, 2021):

T1: His-MIRO-1 (C. elegans, UniProt Q94263 1-602)
T1 construct: C. elegans MIRO-1, residues 1-602; source: E. coli BL21 (DE3) codon plus, purified (Ni2+-Sepharose, size-exclusion chromatography)
T1 sequence (looked up): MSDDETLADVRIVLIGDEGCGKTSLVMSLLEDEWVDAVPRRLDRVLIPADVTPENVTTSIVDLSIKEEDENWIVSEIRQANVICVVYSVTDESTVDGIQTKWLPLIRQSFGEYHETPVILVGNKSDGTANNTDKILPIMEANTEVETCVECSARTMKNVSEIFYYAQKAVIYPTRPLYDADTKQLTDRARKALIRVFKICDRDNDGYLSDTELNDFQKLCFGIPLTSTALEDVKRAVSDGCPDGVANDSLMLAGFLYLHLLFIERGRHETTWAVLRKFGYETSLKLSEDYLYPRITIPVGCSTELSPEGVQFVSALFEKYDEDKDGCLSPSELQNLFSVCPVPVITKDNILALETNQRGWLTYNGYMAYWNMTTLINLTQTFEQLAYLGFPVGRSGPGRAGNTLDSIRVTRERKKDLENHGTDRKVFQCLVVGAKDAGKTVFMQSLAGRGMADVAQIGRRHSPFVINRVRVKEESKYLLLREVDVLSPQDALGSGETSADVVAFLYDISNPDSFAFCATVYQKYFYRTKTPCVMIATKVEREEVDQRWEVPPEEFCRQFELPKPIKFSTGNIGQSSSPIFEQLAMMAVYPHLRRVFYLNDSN

T2: Trx-MTX-1 (C. elegans, UniProt O45503 1-281)
T2 construct: C. elegans MTX-1, residues 1-281
T2 sequence (looked up): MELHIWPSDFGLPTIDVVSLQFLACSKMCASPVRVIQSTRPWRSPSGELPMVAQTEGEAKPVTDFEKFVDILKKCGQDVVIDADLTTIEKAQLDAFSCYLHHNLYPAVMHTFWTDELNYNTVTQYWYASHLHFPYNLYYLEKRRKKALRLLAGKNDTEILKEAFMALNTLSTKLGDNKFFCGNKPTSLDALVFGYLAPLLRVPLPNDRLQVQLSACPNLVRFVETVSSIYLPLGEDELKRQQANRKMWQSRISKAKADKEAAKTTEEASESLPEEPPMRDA

B1: MTX-1/2 complex (formed by co-expression of Trx-MTX-1 and Trx-MTX-2) (complex, C. elegans)
chain 1: T2 sequence (looked up)
chain 2: MSSSGVITQLVTDALSMNAAQDWEDVSLFTPYLNDQALMYDFADCLAVQTFLRMTSLPFNVRQRPNVDFISPDGVVPLLKINKTLITGFNAIVDFVHKKGVTLTSHLSETQVADMRANISMIEHLLTTVEKFVLWNHDETYDKVTKLRYGSVYHWPLSSVLPFVKRRKILEELSDKDWDTKTMDEVGEQADKVFRALSAQLGSQKYLTGDLPTEADALLFGHMYTLITVR
notes: C. elegans MTX-1, residues 1-281; C. elegans MTX-2, full length; Complex formed beforehand by co-expression of the two chains; also called MTX-1/MTX-2 complex; metaxin complex; source: E. coli BL21 (DE3) codon plus, co-expressed (pRSFDuet-1); in cell lysate (pull-down); purified (Ni2+-Sepharose, size-exclusion chromatography) for gel filtration
B2: Trx-MTX-2 (natural protein, C. elegans, UniProt P34599 1-230, looked up)
chain: B1 chain 2
notes: C. elegans MTX-2, full length; source: E. coli BL21 (DE3) codon plus; in cell lysate (pull-down); purified (Ni2+-Sepharose, size-exclusion chromatography) for gel filtration

Assays:
[1] = molecular target: T1, His-MIRO-1; assay: SEC; analytical gel filtration of purified proteins, Superdex-200 10/300, 25 mM HEPES pH 7.4, 100 mM NaCl, 1 mM DTT, 1 mM EDTA; fractions analysed by SDS-PAGE with Coomassie-blue staining; conditions: both partners purified
[2] = molecular target: T2, Trx-MTX-1; assay: as above; conditions: both partners purified

Binder | binding result [1] | binding result [2]
B1 | binds | 
B2 | binds | binds
